Biological target: SerRS WT (Homo sapiens, UniProt P49591 1-514)
Test: EMSA; EMSA: 20 mM Tris-HCl pH 8.0, 60 mM KCl, 5 mM MgCl2, 0.1 mg/mL BSA, 10 ng/uL poly(dG-dC), 1 mM DTT, 30 min, room temperature; 0.08 pmol labeled DNA; 5% native PAGE
Conditions: protein: recombinant; tags: C-terminal His6; chain copies: 2; label: 5'-32P; annealed oligonucleotides

SerRS WT, sequence (P49591 whole entry): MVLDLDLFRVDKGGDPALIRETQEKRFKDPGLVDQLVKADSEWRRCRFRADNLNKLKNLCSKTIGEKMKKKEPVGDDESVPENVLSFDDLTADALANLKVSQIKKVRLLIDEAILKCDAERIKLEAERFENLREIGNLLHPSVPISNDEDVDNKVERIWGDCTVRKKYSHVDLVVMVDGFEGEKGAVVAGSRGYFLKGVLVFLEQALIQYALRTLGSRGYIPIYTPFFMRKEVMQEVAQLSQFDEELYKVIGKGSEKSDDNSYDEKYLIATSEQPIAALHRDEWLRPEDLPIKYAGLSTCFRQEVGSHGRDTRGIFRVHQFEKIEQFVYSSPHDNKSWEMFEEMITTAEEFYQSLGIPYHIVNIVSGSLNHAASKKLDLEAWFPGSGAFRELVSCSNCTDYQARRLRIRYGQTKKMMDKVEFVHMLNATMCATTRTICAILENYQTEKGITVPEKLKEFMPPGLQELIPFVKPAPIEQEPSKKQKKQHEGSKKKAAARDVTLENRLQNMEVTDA

B1: VEGFA promoter SerRS binding site 27 bp (dsDNA)
DNA 1: GGCGGGGCGGAGCCATGCGCCCCCCCC
DNA 2: GGGGGGGGCGCATGGCTCCGCCCCGCC
B1: binds.

From publication PMC7755189, “Phosphorylation of seryl-tRNA synthetase by ATM/ATR is essential for hypoxia-induced angiogenesis”
